Laboratory results reported in US7202329 (MYRIAD GENETICS, dated 2007).

B4: Tsg101 (aa 147-391) (other, human, UniProt Q99816 147-390, looked up)
chain: SASYPPYQATGPPNTSYMPGMPGGISPYPSGYPPNPSGYPGCPYPPGGPYPATTSSQYPSQPPVTTVGPSRDGTISEDTIRASLISAVSDKLRWRMKEEMDRAQAELNALKRTEEDLKKGHQKLEEMVTRLDQEVAEVDKNIELLKKKDEELSSALEKMENQSENNDIDEVIIPTAPLYKQILNLYAEENAIEDTIFYLGEALRRGVIDLDVFLKHVRLLSRKQFQLRALMQKARKTAGLSDLY
notes: range 147-391
B6: VPS28 protein (aa 10-221) (other, human, UniProt Q9UK41 10-221, looked up)
chain: GIGAPGNKPELYEEVKLYKNAREREKYDNMAELFAVVKTMQALEKAYIKDCVSPSEYTAACSRLLVQYKAAFRQVQGSEISSIDEFCRKFRLDCPLAMERIKEDRPITIKDDKGNLNRCIADVVSLFITVMDKLRLEIRAMDEIQPDLRELMETMHRMSHLPPDFEGRQTVSQWLQTLSGMSASDELDDSQVRQMLFDLESAYNAFNRFLHA

Columns and labels:
Test in all cases: yeast two-hybrid
[1] = target: T1, Cytoplasmic linker 2 (CYLN2) (aa 607-947) (UniProt Q9UDT6 607-947)
T1 construct: also called CLIP-115
T1 sequence (looked up): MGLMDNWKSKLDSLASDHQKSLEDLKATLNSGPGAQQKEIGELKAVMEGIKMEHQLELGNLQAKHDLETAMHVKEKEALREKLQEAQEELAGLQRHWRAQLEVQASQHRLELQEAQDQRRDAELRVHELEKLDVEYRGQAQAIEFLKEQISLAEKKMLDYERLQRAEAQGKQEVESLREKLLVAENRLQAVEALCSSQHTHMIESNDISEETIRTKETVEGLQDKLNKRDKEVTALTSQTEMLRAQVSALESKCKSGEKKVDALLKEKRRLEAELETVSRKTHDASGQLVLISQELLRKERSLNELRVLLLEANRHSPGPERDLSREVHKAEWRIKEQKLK

[2] = target: T2, Golgi autoantigen (Golgin-84) (aa 198-501) (UniProt Q8TBA6 198-501)
T2 construct: range 198-501
T2 sequence (looked up): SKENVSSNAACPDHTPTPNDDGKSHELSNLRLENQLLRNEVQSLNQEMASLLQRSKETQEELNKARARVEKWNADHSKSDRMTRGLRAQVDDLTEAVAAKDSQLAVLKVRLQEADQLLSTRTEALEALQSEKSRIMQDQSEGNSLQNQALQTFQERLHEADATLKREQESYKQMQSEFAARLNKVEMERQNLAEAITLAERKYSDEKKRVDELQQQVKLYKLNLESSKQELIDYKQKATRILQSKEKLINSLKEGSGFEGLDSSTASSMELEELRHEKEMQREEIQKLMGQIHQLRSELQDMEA

[3] = target: B6
[4] = target: T3, VPS28 protein (aa 9-211) (human, UniProt Q9UK41 9-211)
T3 construct: range 9-211
T3 sequence (looked up): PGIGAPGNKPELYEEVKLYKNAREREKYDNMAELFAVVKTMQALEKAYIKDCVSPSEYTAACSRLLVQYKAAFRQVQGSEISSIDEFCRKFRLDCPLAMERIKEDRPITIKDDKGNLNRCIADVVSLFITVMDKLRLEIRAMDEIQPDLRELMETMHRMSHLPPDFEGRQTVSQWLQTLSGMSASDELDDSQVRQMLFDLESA

[5] = target: T4, Death associated protein 5 (DAP5) (aa 16-157) (UniProt P78344 16-157)
T4 construct: range 16-157
T4 sequence (looked up): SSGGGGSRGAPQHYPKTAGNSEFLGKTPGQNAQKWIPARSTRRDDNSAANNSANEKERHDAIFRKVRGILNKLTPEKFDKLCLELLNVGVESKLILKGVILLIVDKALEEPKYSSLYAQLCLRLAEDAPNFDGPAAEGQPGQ

[6] = target: T5, Chromosome-associated polypeptide HCAP (aa 119-353) (human, UniProt Q9UQE7 119-353)
T5 construct: range 119-353

[7] = target: T6, Protein kinase C and casein kinase substrate (PACSIN2) (aa 174-367) (UniProt Q9UNF0 174-367)
T6 construct: range 174-367
T6 sequence (looked up): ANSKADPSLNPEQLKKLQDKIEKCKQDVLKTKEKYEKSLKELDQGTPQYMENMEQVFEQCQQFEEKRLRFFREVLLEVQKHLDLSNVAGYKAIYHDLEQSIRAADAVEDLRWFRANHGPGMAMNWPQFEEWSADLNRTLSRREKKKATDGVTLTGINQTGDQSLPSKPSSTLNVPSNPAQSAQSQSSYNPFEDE

[8] = target: B4
[9] = target: T7, hypothetical protein FLJ10540 (aa 1-140) (UniProt Q53EZ4 1-140)
T7 construct: range 1-140
T7 sequence (looked up): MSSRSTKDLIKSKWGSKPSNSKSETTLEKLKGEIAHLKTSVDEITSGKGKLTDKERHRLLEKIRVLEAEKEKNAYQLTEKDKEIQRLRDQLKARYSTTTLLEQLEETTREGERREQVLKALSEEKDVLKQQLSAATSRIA

T5 sequence (Q9UQE7 119-353 limits assumed): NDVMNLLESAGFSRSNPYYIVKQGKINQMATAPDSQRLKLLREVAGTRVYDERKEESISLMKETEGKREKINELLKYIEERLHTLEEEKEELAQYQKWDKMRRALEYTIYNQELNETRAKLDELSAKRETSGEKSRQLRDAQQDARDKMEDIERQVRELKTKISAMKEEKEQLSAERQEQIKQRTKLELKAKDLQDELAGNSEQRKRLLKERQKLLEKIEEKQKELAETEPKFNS

B1: Tsg101 (aa 231-391) (other, human, UniProt Q99816 231-390, looked up)
chain: ISAVSDKLRWRMKEEMDRAQAELNALKRTEEDLKKGHQKLEEMVTRLDQEVAEVDKNIELLKKKDEELSSALEKMENQSENNDIDEVIIPTAPLYKQILNLYAEENAIEDTIFYLGEALRRGVIDLDVFLKHVRLLSRKQFQLRALMQKARKTAGLSDLY
binding result [1]: binds | binding result [2]: binds | binding result [3]: binds | binding result [4]: binds

B2: Tsg101 (aa 317-391) (other, human, UniProt Q99816 317-390, looked up)
chain: VIIPTAPLYKQILNLYAEENAIEDTIFYLGEALRRGVIDLDVFLKHVRLLSRKQFQLRALMQKARKTAGLSDLY
notes: range 317-391
binding result [3]: binds

B3: Tsg101 (aa 265-391) (other, human, UniProt Q99816 265-390, looked up)
chain: KGHQKLEEMVTRLDQEVAEVDKNIELLKKKDEELSSALEKMENQSENNDIDEVIIPTAPLYKQILNLYAEENAIEDTIFYLGEALRRGVIDLDVFLKHVRLLSRKQFQLRALMQKARKTAGLSDLY
notes: range 265-391
binding result [5]: binds | binding result [6]: binds | binding result [7]: binds | binding result [3]: binds

B4
binding result [2]: binds

B5: VPS28 protein (aa 27-221) (other, human, UniProt Q9UK41 27-221, looked up)
chain: YKNAREREKYDNMAELFAVVKTMQALEKAYIKDCVSPSEYTAACSRLLVQYKAAFRQVQGSEISSIDEFCRKFRLDCPLAMERIKEDRPITIKDDKGNLNRCIADVVSLFITVMDKLRLEIRAMDEIQPDLRELMETMHRMSHLPPDFEGRQTVSQWLQTLSGMSASDELDDSQVRQMLFDLESAYNAFNRFLHA
binding result [8]: binds

B6
binding result [8]: binds

B7: Tsg101 (aa 140-270) (other, human, UniProt Q99816 140-270, looked up)
chain: PVFSRPISASYPPYQATGPPNTSYMPGMPGGISPYPSGYPPNPSGYPGCPYPPGGPYPATTSSQYPSQPPVTTVGPSRDGTISEDTIRASLISAVSDKLRWRMKEEMDRAQAELNALKRTEEDLKKGHQKL
notes: range 140-270
binding result [9]: binds
